Laboratory results as given in PMC3202562, “A Broad Set of Different Llama Antibodies Specific for a 16 kDa Heat Shock Protein of Mycobacterium tuberculosis” (PLoS ONE, 2011).
Where two headings read alike, the source gives them in different places.

B1: A-93 (VHH)
VHH: QVQLQESGGGLVQAGGSLRLSCAASRRLYSSYSLGWFRQAPGKEREFVAALGWIANGTYYADSAKGRFTISRGNAMVFLQMNSLKSEDTAVYYCAARLGSVREAPREYTYWGQGTQVTVSS
B2: VHH A-28 (VHH)
VHH: QVQLQDSGGGLVQAGDSLRLSCTYSGRSFSNHAMGWFRQAPGKERGFVAAIGWINGGTYYADSVKGRFIISRDNDKNTLYLQMNNLKPEDTAVYYCAARNALRSISFNLSEYAYWGQGTQVTVSS
notes: source: E. coli BL21-AI, purified (urea lysis, Ni-NTA)

Legend:
[1] = target: T1, purified recombinant 16 kDa heat shock protein of M. tuberculosis (Mycobacterium tuberculosis, UniProt P9WMK1)
T1 sequence (P9WMK1 whole entry): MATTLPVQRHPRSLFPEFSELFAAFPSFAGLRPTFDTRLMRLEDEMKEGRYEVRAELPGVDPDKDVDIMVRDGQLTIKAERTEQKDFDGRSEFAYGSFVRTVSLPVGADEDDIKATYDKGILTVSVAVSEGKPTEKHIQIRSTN

[2] = target: 16 kDa heat shock protein of M. tuberculosis, in M. tuberculosis lysate (Mycobacterium tuberculosis (lysates of …, UniProt P9WMK1))
Sequence of 16 kDa heat shock protein of M. tuberculosis, in M. tuberculosis lysate (Mycobacterium tuberculosis (P9WMK1 whole entry): as above

[3] = target: T1, purified recombinant 16 kDa heat shock …; experiment: far-Western, overlay or dot blot; conditions: both partners purified

| Binder | binding result [1] | binding result [2] | binding result [3] |
| --- | --- | --- | --- |
| B1 | binds | binds | – |
| B2 | – | – | binds |
